The results in this text go back to patent US20240307562A1 (ONCOONE RESEARCH AND DEVELOPMENT, published 2024).

In experiment [1] the target is T1, Recombinant human MIF immobilized on ELISA plates (oxMIF) (human, UniProt P14174 2-115).
T1 construct: also called immobilized MIF; oxidized MIF
As to the kind of experiment: ELISA on immobilized human MIF (oxMIF), protein L-HRP detection; EC50 of 4-parameter fit taken as KD. The procedure: (§1) Material and Methods: Recombinant human MIF diluted in PBS at 1 μg/ml was immobilized into ELISA plates overnight at 4° C. (transforming MIF to oxMIF according to Thiele et al., 2015). After blocking, serial dilutions of anti-oxMIF antibodies were added to the plates. Finally, bound antibodies were detected using a protein L-HRP conjugate and tetramethylbenzidine (TMB) as substrate. The chromogenic reaction was stopped with 3M H₂SO₄ and OD was measured at 450 nm. Data from different experiments were normalized to the maximal OD of the anti-oxMIF antibody C0008 (=100%) of the respective experiment and EC₅₀ values were determined by 4-parameter fit using GraphPad Prism (and the mean of two experiments is shown).
Background: ELISA stands for enzyme-linked immunosorbent assay.

In experiment [2] the target is T1, Recombinant human MIF immobilized on …. As to the kind of experiment: ELISA on immobilized human MIF (oxMIF), anti-human IgG (Fc)-HRP detection; EC50 taken as apparent KD. The procedure:
Recombinant human MIF diluted in PBS at 1 μg/ml was immobilized into ELISA plates overnight at 4° C. (transforming MIF to oxMIF according to Thiele et al., 2015). After blocking, serial dilutions of anti-oxMIF antibodies with and without DFO* conjugation (DFO* conjugation is described in Example 19) were added to the plates. Finally, bound antibodies were detected using a Goat anti-human IgG (Fc)-HRP conjugate and tetramethylbenzidine (TMB) as substrate. The chromogenic reaction was stopped with 3M H₂SO₄ and OD was measured at 450 nm. If data from different experiments were combined, the data were normalized to the maximal OD of the anti-oxMIF antibody C0008 (=100%) of the respective experiment and EC₅₀ values were determined by 4-parameter fit using GraphPad Prism (and the mean+/−SEM of two experiments is shown).
Results and conclusion: The binding of the newly designed antibodies towards immobilized MIF (oxMIF) was measured over a broad range of concentrations and the resulting binding curves are illustrated in FIG. 19. The anti-oxMIF antibody C0008 was used as reference for oxMIF binding. […] Additionally, DFO* conjugation of the newly designed Fc-silenced antibodies C0115 and C0118 has not changed their affinity (FIG. 19B).

Experiment [3] concerns the target human FcγRIIIA receptor, V158 (high affinity allotype) (human, UniProt P08637 17-254). The experiment can be described thus: cell-based or functional assay.
The target in experiment [4] is T1, Recombinant human MIF immobilized on …. As to the kind of experiment: ELISA on immobilized human MIF (oxMIF). On the procedure: as §1
Results and conclusion: The binding of the newly designed antibodies towards immobilized MIF (oxMIF) was measured over a broad range of concentrations and the resulting binding curves are illustrated in FIG. 8. The anti-oxMIF antibody C0008 was used as reference for oxMIF binding.

T1 sequence (P14174 2-115 limits assumed): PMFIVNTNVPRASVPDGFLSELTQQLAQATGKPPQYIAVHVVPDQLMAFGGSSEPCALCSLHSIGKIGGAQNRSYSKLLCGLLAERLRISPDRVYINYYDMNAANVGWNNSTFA
Sequence of human FcγRIIIA receptor, V158 (high affinity allotype) (P08637 17-254 F176V): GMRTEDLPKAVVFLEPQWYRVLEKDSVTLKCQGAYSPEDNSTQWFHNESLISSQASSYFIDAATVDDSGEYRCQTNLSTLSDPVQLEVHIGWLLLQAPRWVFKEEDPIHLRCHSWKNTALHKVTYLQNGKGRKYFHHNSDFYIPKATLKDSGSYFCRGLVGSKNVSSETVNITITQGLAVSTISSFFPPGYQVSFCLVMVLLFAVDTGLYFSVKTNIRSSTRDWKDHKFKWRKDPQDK

B1: C0008 (Imalumab control antibody) (antibody, human IgG1, kappa, V domains shown)
VH: EVQLLESGGGLVQPGGSLRLSCAASGFTFSIYSMNWVRQAPGKGLEWVSSIGSSGGTTYYADSVKGRFTISRDNSKNTLYLQMNSLRAEDTAVYYCAGSQWLYGMDVWGQGTTVTVSS
VL: DIQMTQSPSSLSASVGDRVTITCRSSQRIMTYLNWYQQKPGKAPKLLIFVASHSQSGVPSRFRGSGSETDFTLTISGLQPEDSATYYCQQSFWTPLTFGGGTKVEIKR
notes: also called Bax69
Consider B1, for which the Kd in experiment [1] is 0.7 nM; in experiment [2], 0.19 nM.

B2: C0073 (antibody, human IgG1, kappa)
heavy: not shown
light: DIQMTQSPSSLSASVGDRVTITCRSSQRIMTYLNWYQQKPGKAPKLLIYVGSHSQSGVPSRFRGSGSETDFTLTISGLQPEDSATYYCQQSFFTPLTFGGGTKVEIKRTVAAPSVFIFPPSDEQLKSGTASVVCLLNNFYPREAKVQWKVDNALQSGNSQESVTEQDSKDSTYSLSSTLTLSKADYEKHKVYACEVTHQGLSSPVTKSFNRGEC
notes: IgG1, wt Fc
In the case of B2, the Kd in experiment [1] was found to be 1 nM.

B3: C0076 (antibody, human IgG1, kappa, V domains shown)
VH: EVQLQESGGGLVQPGGSLRLSCAASGFTFSIYSMNWVRQAPGKGLEWVSSIGSSGGTTYYADSVKGRFTISRDNSKNTLYLQMNSLRAEDTAVYYCAGSQWLYGMDVWGQGTTVTVSS
VL: DIQMTQSPSSLSASVGDRVTITCRSSQRIMTYLNWYQQKPGKAPKLLIYVGSHSQSGVPSRFRGSGSETDFTLTISGLQPEDSATYYCQQSFWTPLTFGGGTKVEIKR
notes: IgG1, wt Fc
For B3, the Kd in experiment [1] turned out to be 1.1 nM.

B4: C0115 (antibody, human IgG1, kappa, L234A L235A)
heavy: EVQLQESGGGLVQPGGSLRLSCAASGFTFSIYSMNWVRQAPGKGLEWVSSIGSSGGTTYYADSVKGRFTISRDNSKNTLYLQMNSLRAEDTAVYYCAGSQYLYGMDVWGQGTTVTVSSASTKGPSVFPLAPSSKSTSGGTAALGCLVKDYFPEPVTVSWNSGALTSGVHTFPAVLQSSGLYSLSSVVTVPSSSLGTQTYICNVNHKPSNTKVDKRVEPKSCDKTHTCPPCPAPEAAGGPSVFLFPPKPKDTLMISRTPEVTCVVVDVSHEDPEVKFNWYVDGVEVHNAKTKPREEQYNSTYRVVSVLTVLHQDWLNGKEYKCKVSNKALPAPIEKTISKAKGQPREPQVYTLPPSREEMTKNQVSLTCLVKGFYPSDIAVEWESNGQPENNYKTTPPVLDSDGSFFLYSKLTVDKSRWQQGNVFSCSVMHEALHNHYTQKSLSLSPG
light: DIQMTQSPSSLSASVGDRVTITCRSSQRIMTYLNWYQQKPGKAPKLLIYVGSHSQSGVPSRFRGSGSETDFTLTISGLQPEDSATYYCQQSFFTPLTFGGGTKVEIKRTVAAPSVFIFPPSDEQLKSGTASVVCLLNNFYPREAKVQWKVDNALQSGNSQESVTEQDSKDSTYSLSSTLTLSKADYEKHKVYACEVTHQGLSSPVTKSFNRGEC
notes: IgG1 with Fc silencing L234A/L235A (EU numbering); also called Fc silenced anti-oxMIF antibody C0115
Take B4: the Kd in experiment [2] was determined as 0.28 nM.

B5: C0078 (antibody, human IgG1, kappa)
heavy: not shown
light: DIQMTQSPSSLSASVGDRVTITCRSSQRIMTYLNWYQQKPGKAPKLLIYVGSHSQSGVPSRFRGSGSETDFTLTISGLQPEDSATYYCQQSFFTPLTFGGGTKVEIKRTVAAPSVFIFPPSDEQLKSGTASVVCLLNNFYPREAKVQWKVDNALQSGNSQESVTEQDSKDSTYSLSSTLTLSKADYEKHKVYACEVTHQGLSSPVTKSFNRGEC
notes: IgG1, wt Fc
On to B5, for which the Kd in experiment [1] turned out to be 1.6 nM.

B6: C0083 (antibody, human IgG1, kappa)
heavy: not shown
light: DIQMTQSPSSLSASVGDRVTITCRSSQRIMTYLNWYQQKPGKAPKLLIYVGSHSQSGVPSRFRGSGSETDFTLTISGLQPEDSATYYCQQSFFTPLTFGGGTKVEIKRTVAAPSVFIFPPSDEQLKSGTASVVCLLNNFYPREAKVQWKVDNALQSGNSQESVTEQDSKDSTYSLSSTLTLSKADYEKHKVYACEVTHQGLSSPVTKSFNRGEC
notes: IgG1, wt Fc; also called parent antibody of C0115
For the molecule B6, the “EC50 (read off the curve), ADCC reporter luminescence” value in experiment [3] was around 3 nM. In experiment [1], the Kd stood at 0.5 nM.

B7: C0077 (antibody, human IgG1, kappa, name in Kabat numbering, V domains shown)
VH: EVQLQESGGGLVQPGGSLRLSCAASGFTFSIYSMNWVRQAPGKGLEWVSSIGSSGGTTYYADSVKGRFTISRDNSKNTLYLQMNSLRAEDTAVYYCAGSQWLYGMDVWGQGTTVTVSS
VL: DIQMTQSPSSLSASVGDRVTITCRSSQRIMTYLNWFQQKPGKAPKLLIYVGSHSQSGVPSRFRGSGSETDFTLTISGLQPEDSATYYCQQSFWTPLTFGGGTKVEIKR
notes: IgG1, wt Fc
With B7, the “fold reduction in affinity compared to C0076” value in experiment [4] is 5 fold. In addition, the Kd in experiment [1] was 5.2 nM.

B8: C0090 (antibody, human IgG1, kappa)
heavy: not shown
light: DIQMTQSPSSLSASVGDRVTITCRSSQRILTYLNWYQQKPGKAPKLLIYVGSHSQSGVPSRFRGSGSETDFTLTISGLQSEDSATYYCQQSFFTPLTFGGGTKVEIKRTVAAPSVFIFPPSDEQLKSGTASVVCLLNNFYPREAKVQWKVDNALQSGNSQESVTEQDSKDSTYSLSSTLTLSKADYEKHKVYACEVTHQGLSSPVTKSFNRGEC
notes: IgG1, wt Fc; also called parent antibody of C0118
As to B8, the “EC50 (read off the curve), ADCC reporter luminescence” value in experiment [3] was around 3 nM. Further, the Kd in experiment [1] came to 0.5 nM.

B9: C0118 (antibody, human IgG1, kappa, L234A L235A)
heavy: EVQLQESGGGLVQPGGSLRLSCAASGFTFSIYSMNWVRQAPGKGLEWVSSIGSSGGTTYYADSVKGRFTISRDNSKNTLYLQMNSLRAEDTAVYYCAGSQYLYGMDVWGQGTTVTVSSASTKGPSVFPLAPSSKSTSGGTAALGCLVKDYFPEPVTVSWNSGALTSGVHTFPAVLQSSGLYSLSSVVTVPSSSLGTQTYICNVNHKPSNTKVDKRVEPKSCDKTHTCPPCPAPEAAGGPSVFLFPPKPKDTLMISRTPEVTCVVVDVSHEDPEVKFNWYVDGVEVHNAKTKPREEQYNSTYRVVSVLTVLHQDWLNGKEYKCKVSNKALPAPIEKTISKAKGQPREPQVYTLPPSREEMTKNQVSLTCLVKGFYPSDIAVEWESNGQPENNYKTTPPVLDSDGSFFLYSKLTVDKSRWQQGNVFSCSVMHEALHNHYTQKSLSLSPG
light: DIQMTQSPSSLSASVGDRVTITCRSSQRILTYLNWYQQKPGKAPKLLIYVGSHSQSGVPSRFRGSGSETDFTLTISGLQSEDSATYYCQQSFFTPLTFGGGTKVEIKRTVAAPSVFIFPPSDEQLKSGTASVVCLLNNFYPREAKVQWKVDNALQSGNSQESVTEQDSKDSTYSLSSTLTLSKADYEKHKVYACEVTHQGLSSPVTKSFNRGEC
notes: IgG1 with Fc silencing L234A/L235A (EU numbering); also called Fc silenced anti-oxMIF antibody C0118
Take B9: in experiment [2], the Kd was 0.26 nM.
